# Measured values: the supplement of paper PMC9170038
# Test system: MS2 coat protein
# Test: apparent KD of MS2 coat protein; higher = weaker reporter binding
# Conditions: Eterna round: R107
# Method in brief: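 Designed RNA switches, transcribed on-chip from Illumina sequencing clusters, were titrated with SNAP-549-labelled MS2 coat protein from 0.7 or 1.5 nM to 3 µM in twofold steps. The solution was 100 mM Tris-HCl pH 7.5, 80 mM KCl, 4 mM MgCl2, with constant ligand or without it. Apparent KD is the median over each design's normalised cluster binding-curve fits.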
# [1] = input ligand: theophylline 20 uM
# [2] = input ligand: tryptophan 2.4 mM
# [3] = input ligand: theophylline 2 mM
Sequence,apparent KD of MS2 coat protein (input ligand: arginine 13.2 mM),apparent KD of MS2 coat protein [1],apparent KD of MS2 coat protein [2],apparent KD of MS2 coat protein (input ligand: none),apparent KD of MS2 coat protein [3]
AUGCAGGGCAACAGCCACUGUCACGGUGAUACCAGUACCCGUGCGUACCCUUGGCAGCAUCGUGGUACAUGAGGAUCACCCAUGU [Enatleceed],36.8 nM,503 nM,546 nM,–,–
AUGUAGAACCGAAGGAGCGCGAUAACAUGAGGAUCACCCAUGUAGUUUUGGUGGCUUCGAUCGCAGGUAGGUCGCGGAAGUAGUA [#03 Exclusion - Arginine B],37.9 nM,97.6 nM,55.4 nM,35.9 nM,77 nM
AUGUCGUUGAAUAUAGCGGCUUGGUGUGAUACCAGAAUGAUCUAAUUCCCUUGGCAGCAUUACAUGAGGAUCACCCAUGUUCCAG [SSTheo A #21],23.6 nM,47.4 nM,48.7 nM,39.1 nM,57.3 nM
AUUAAGGAUAUGUAGAAGGCGGAGAAGAGACGAGGACCGGUACGGCCGCCACUCGUGUUAGUUAACAUGAGGAUCACCCAUGUAA [#06 Tryptophan A Same State],14.3 nM,72.3 nM,17.1 nM,60.7 nM,112 nM
AUUAAUUGUCGUGAUACCAGACAUACAUGAGGAUCACCCAUGUUAAGUAACAUUUUUUAUGUCCCUUGGCAGCACUUUUUAAUUA [JR_Nu_SSTheophyB_Sub017],22 nM,24.8 nM,19.7 nM,–,–
AUUAUCAUGGUCAUUUAUAUUUCGUCAGAUACCAGACUAGAUAUAGUCCCUUGGCAGCUGUUACAUGAGGAUCACCCAUGUUAUU [JR_ExcTheophyA_Sub018],44.7 nM,70.6 nM,103 nM,–,–
AUUCAUGAAAACAUGACAUGAGGAUCACUCCGAGGACCGGUACGGCCGCCACUCGCGAGGAGGCACAUGAGGAUCACCCAUGUUA [SS Tryp A #2],36 nM,119 nM,–,–,143 nM
AUUUAUAGUUGUGAUACCAGACUUACAUGAGGAUCACCCAUGUUACUUAAAUGUUUUGAUGUCCCUUGGCAGCACUGUUUUUUUA [JR_Nu_ExcTheophyB_Sub029],16.1 nM,22.6 nM,16.4 nM,–,–
CAAAUAAGAACAAACAAAUAACGGUUUUCGCGAGGACCGGUACGGCCGCCACUCGUGUGAAAUAACACAUGAGGAUCACCCAUGU [3'end-1],31.8 nM,44.6 nM,–,–,47.9 nM
CAACUGGCAGAGGAUACCAGAUCAUUUAGAAACAUGAGGAUCACCCAUGUCGUAAGGAUAAUCCCUUGGCAGCCUAUCCGCCUCG [theeternabot_sameState_MS2_Theo_B_48],14.2 nM,16.6 nM,14.5 nM,–,–
CACAUGAGGAUCACCCAUGUGUAAUAUGAAGGAGCGUCGGAAAUGACAGGUAGGUCGCAUGAAAUGCAAGUGUGUGAGGUUGUGA [EAA NP+V+V2 #12],9.17 nM,17.7 nM,10.9 nM,10 nM,10.5 nM
CACGCACGAUCGGCCGCCACUCAUGUAGCUUACAUGAGGAUCACCCAUGUAUUUUCUUUCUUUUAGAGGACCGGGAUCGUGCGUG [#03 Same State - Tryptophan B],25 nM,48.5 nM,–,–,35 nM
CACGGAUGAGUGGAUCACCCUCAUAAUAACCGAGGACCGGUACGGCCGCCACUCGAAAACCGUGACCUGUACGAAAAGUGCAGGA,28 nM,486 nM,708 nM,33.5 nM,782 nM
CCAUAAGUACCGGUCCUCAGAUCCUCAUGACGAGGACCGGUACGGCCGCCACUCGAAACAUGAGGAUCACCCAUGUAAUAAUAUU [Brourdmod14],19.3 nM,45.4 nM,–,–,31.1 nM
CCCAUACAUGAGGAUCACCCAUGUGUUGAUACCAGCAUAUGUAGAUGCCCUUGGCAGCAAGCUUGGGUCACUGGAAAACAUCUAA [theeternabot_sameState_MS2_Theo_A_38],23.8 nM,27.4 nM,22.6 nM,–,–
CCGUUUUAUGGCGACAUAGGGCGGACUGAAGGAGCGGUAUAAAAGCCAGGUAGGUCGCAGAGAUCCACAUGAGGAUCACCCAUGU [!0.aA],29.4 nM,45.8 nM,51 nM,39.7 nM,41 nM
CCUCAAUAGACGGCCGCCACUGAAACAUGCGGAUACAUGAGGAUCACCCAUGUGGGUGUGUUACGCAGGACCGGGUCAAGACCCG [#12 Same State - Tryptophan B],115 nM,316 nM,–,–,583 nM
CCUCCUUGUACGGCCGCCACUGCAUCUCUGGAUACUCCGAUAAUACAUGAGGAUCACCCAUGUUACAGGACCGGGUAUAUAUUAC [theeternabot_sameState_MS2_Trp_B_19],14.7 nM,18.7 nM,–,–,15.3 nM
CGAAUAUAGACGGCCGCCACUCUACAAACAUGAGGAUCACCCAUGUUCACAUAGUGGAAACACAUGAGGACCGGGUCAUAGGCAU [#18 Same State - Tryptophan B],19.2 nM,25.4 nM,–,–,21.3 nM

Sequence,apparent KD of MS2 coat protein (input ligand: arginine 13.2 mM),apparent KD of MS2 coat protein [1],apparent KD of MS2 coat protein [2],apparent KD of MS2 coat protein (input ligand: none),apparent KD of MS2 coat protein [3]
CGAUAGAUACGAAGGAGCGACAUGAGGAUCACCCAUGUCUACCACGUCGAAAGACGCUCAUGUCAGGUAGGUCGCGUAUUUAUCG [Astros-Eli-mod8],60.3 nM,124 nM,101 nM,122 nM,156 nM
CGGCCCUCACCUGAGGAUCACCCGGGUGAUACCAGCCUGGAAACAGGCCCUUGGCAGCACCAGGUCAUCAAAGAUGACCAAGCCG [TheoAX 26 #OpenEnded #AlternativeMS2],21.3 nM,110 nM,105 nM,97.5 nM,2630 nM
CGUAUUACGAAAGUAGUACGUAGUUCGAGUCGAGGACCGGUACGGCCGCCACUCGGACAUGAGGAUCACCCAUGUAGCGAAAGCU [Tryptophan A 23],68.2 nM,156 nM,72.4 nM,125 nM,161 nM
CGUAUUGUAACUGAUACCAGUGUACUGACAUGAGGAUCACCCAUGUUGGGUUUUGUUGUACACCCUUGGCAGCAGAAUCAAUACG [AstrosExyTheB#5],59.4 nM,74.2 nM,65.8 nM,–,–
CUAAGAGCGGCGGCCGCCACUGGUAACCAAGAGGCGGAGCCUCUGACAUGAGGAUCACCCAUGUUCAGGACCGGGUCGUCUUAGA [#07 Same State - Tryptophan B],7.23 nM,13.6 nM,10.9 nM,12.2 nM,18.5 nM
CUAUAUAUAUCGGCCGCCACUUACUCAUGAGGUAACAACAUGAGGAUCACCCAUGUUUGAGGAUCAAGGACCGGGAUAUAUAUAG [AstrosSSTryB#15],31.8 nM,33.4 nM,–,–,32.6 nM
CUAUAUGGAAACAUAUAGAAGCGAAAGCAGCGAGGACCGGUACGGCCGCCACUCGCAGAGUGGUGGACAUGAGGAUCACCCAUGU [Design 2],43.8 nM,111 nM,40 nM,83.2 nM,74.6 nM
CUAUAUUAUAGAAGGAGCGUCGAAAAUGGGUAAACAUGAGGAUCACCCAUGUAAAGGGAACGACAGGUAGGUCGCUAUAAUAUAG [AstromonsSSArgB#13],117 nM,201 nM,195 nM,220 nM,252 nM
CUAUAUUUAUCGGCCGCCACUUACUCAUGAGGUAACAACAUGAGGAUCACCCAUGUUUGAGGAUCAAGGACCGGGAUAAAUAUAG [AstrosSSTryB#17],25.4 nM,34.2 nM,–,–,31 nM
CUAUCCUUGCCGGAUGAAGGACACUGAGAAGGAGCGCGGUAAUCCGCAGGUAGGUCGCUCAGGAGUACAUGAGGAUCACCCAUGU [Xeonrave],16.1 nM,26.9 nM,20.7 nM,20.8 nM,23.7 nM
CUCCCGUGGUCGGCCGCCACUGGAGGCCUCGCGCGACAUGAGGAUCACCCAUGUUGGCCCGGCUUCAGGACCGGGAUCGCGUGAG [#1 Same State - Tryptophan B Attempt #8 (HarryS)],12.2 nM,16.2 nM,–,–,12.6 nM
CUGACGUAGGAAGAUAUCUGGAACAAGGAUACCAGUAAACCAACAUACCCUUGGCAGCCUAAAACAUGAGGAUCACCCAUGUAAU [theeternabot_exclusion_MS2_Theo_A_26],11.9 nM,14.2 nM,13.7 nM,–,–
GACAUGAGGAUAGAUACCAGCGACAUGAGGAUCACAUGAGGAUCACCCAUGUGUAGUAUACGCCCUUGGCAGCUAACAUGAGGAU [Same State Theophylline B 3],59.5 nM,129 nM,68.1 nM,–,–
GACAUGAGGAUCACCCAUGUACCGCGAGAAGGAGCGCGGAUAAACGCAGGUAGGUCGCUCGUGGGCUUAUAUUCAAUUGUAAGCU [Usence],24.8 nM,43.1 nM,30.4 nM,33.2 nM,44.6 nM
GACCCAUGAGUUGGAAAAGCUCAUGGGUCGCGAGGACCGGUACGGCCGCCACUCGGCUGUACAUGAGGAUCACCCAUGUCAGGGU [#1 Same State - Tryptophan A Attempt #25 (HarryS)],96.9 nM,614 nM,711 nM,125 nM,573 nM
GAGCUGAUGUAGAAAUUUUAUUUAUGAGAUACCAGUACAGAAAUGUACCCUUGGCAGCUCAUUUUUACAUGAGGAUCACCCAUGU [Ex Theophylline A 14],13.5 nM,12.8 nM,13.3 nM,–,–
GAGUAGAGGACGGCCGCCACUGAACAUGAGGAUCACCCAUGUCGUGAUCCGUUACCUAAAGAAGAUAGGACCGGGUCAUGUACUC [Exclusion Tryptophan B GF 19],28.9 nM,41.7 nM,–,–,32.7 nM
GAUGAACUAUAUGAUACCAGACAACAUGAGGAUCACCCAUGUGAAUGUCGUCCUCUGCCUGUCCCUUGGCAGCGUAUAGUUUAUC [XTheo B #15],29.3 nM,67.6 nM,20.3 nM,–,–
